These results are taken from patent US20050019808A1 (WISCONSIN ALUMNI RESEARCH FOUNDATION, published 2005).

For one data set, the target named is T1, B23 (nucleophosmin) (UniProt P06748 1-294).
T1 construct: Endogenous protein of HeLa cells; also called protein B23; ribosomal chaperone protein B23
Description: mobility shift, 4% native PAGE, Western with Ab-B23; not sensitive to RNaseA.

Data set [1] concerns the molecule itself. Nature of the data set: SDS-PAGE and Western, self-association (dimer).
Data set [2] deals with the molecule itself. Description: SDS-PAGE and Western, self-association (results not shown).

T1 sequence (P06748 whole entry): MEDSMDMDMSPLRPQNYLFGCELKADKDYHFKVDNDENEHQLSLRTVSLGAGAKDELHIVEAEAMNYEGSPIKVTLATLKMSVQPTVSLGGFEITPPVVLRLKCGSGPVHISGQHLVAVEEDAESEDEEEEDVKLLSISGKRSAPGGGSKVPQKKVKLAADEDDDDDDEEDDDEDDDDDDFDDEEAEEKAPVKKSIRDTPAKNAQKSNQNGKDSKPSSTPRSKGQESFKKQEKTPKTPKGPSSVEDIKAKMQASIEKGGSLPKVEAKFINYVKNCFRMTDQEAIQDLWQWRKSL

B1: recombinant Mengo 2A protein (other)
chain: SPNPLDVSKTYPTLHILLQFNHRGLEARIFRHGQLWAETHAEVVLRSKTKQISFLSNGSYPSMDATTPLNPWKSTYQAVLRAEPHRVTMDVYHKRIRPFRLPLVQKEWRTCEENVFGLYHVFETHYAGYFSDLLIHDVETNPG
notes: domain: 2A; also called r2A; recombinant 2A
B1: the binding result (with B23 (nucleophosmin); in data set [1]) was “binds” each time.

B2: recombinant Mengo 2B protein (other)
chain: PFTFKPRQRPVFQTQGAAVSSMAQTLLPNDLASKAMGSAFTALLDANEDAQKAMKIIKTLSSLSDAWENVKGTLNNPEFWKQLLSRCVQLIAGMTIAVMHPDPLTLLCLGVLTAAEITSQTSLCEEIAAKFKTIFTTPPPRFPVISLFQQQ
notes: domain: 2B; also called recombinant 2B protein
Consider B2, for which the binding result in data set [2] was “binds”.
